Residues, ends and D or L forms follow the SMILES beside them.

Series [1] in a line: In vitro skin permeability test of OVA with glyceryl monooleate/glyceryl monolinoleate (Example 11). It counts as in vitro ADME. Conditions: OVA S/O-S in IPM; HR-1 mouse skin, 4 hours. As for the experimental part:
Glyceryl monooleate and glyceryl monolinoleate were dissolved in IPM with the composition shown in the following Table 7 to prepare Formulation 2.
Formulation 1 and Formulation 2 were mixed with a volume ratio of 1:1, and used in the following skin permeability test.
After 4 hours, the receiver phase was recovered, and the amount of the FITC-OVA permeated through the skin was quantified by using a plate reader.

A short description of series [2]: In vitro skin permeability test of CMAP peptide S/O-S formulations with various oily bases (Example 1). It counts as in vitro ADME, Yucatan micropig.
A short description of series [3]: Measurement of zeta potential by electrophoretic light scattering. It counts as physicochemical. The conditions noted are these: 1 mg in 1 mL PBS solution, 25° C., Zetasizer Nano ZS. The procedure: In each 1 mL of a PBS solution was dissolved 1 mg of a part (7 kinds) of the various kinds of hydrophilic polymers shown in the above-mentioned Table 1, and a zeta potential was measured by an electrophoretic light scattering method at 25° C. using Zetasizer Nano ZS (Malvern Panalytical Ltd.).

For series [4] the following is noted: no method given; cited from earlier work.
Series [5] is described as follows: In vitro skin permeability test of hydrophilic polymers in S/O-S formulation containing MGOL-70 (Example 6). Conditions: for Skin permeation amount of S/O-S preparation: 1 mg/mL hydrophilic polymer S/O-S formulation in IPM containing 25 mg/mL MGOL-70; for Skin permeation amount of S/O-S preparation / Skin permeation amount of PBS solution: YMP skin, 24 hours, 32° C.; for Enhancement effect: S/O-S preparation versus PBS solution; for Skin permeation amount of PBS solution: hydrophilic polymer in PBS solution.

Series [6] in a line: In vitro skin permeability test of OVA S/O-S formulations with various base oils (Example 8). Format: in vitro ADME, Yucatan micropig. Conditions: for Average skin permeation amount: Yucatan micropig, pig, 24 h.
The nature of series [7]: In vitro skin permeability test of OVA versus concentration of permeation enhancing substance (Example 3). The conditions noted are these: S/O-S formulation 1 mg/mL OVA in IPM; enhancer solutions of 2, 10, 50 or 100 mg/mL mixed 1:1; 24 hours.

Consider `CCCCC/C=C\C/C=C\CCCCCCCC(=O)OCC(O)CO` (stereo not drawn) [glyceryl monolinoleate], for which the “skin permeation amount of the drug with increase in the addition ratio” value in series [1] is listed as “the skin permeation amount of the drug was increased”.
As to `CCCCCCCC/C=C\CCCCCCCC(=O)O` [oleic acid], the “enhancing effect of percutaneous permeation (amount of skin permeation of the CMAP peptide)” value in series [2] is “high enhancing effect of percutaneous permeation”.
With Green fluorescent protein, in series [3], the ζ potential is −9.52 mV. Further, in series [4], the pI was 6.1. In addition, in series [5], the “Skin permeation amount of S/O-S preparation” value stood at 35.0 μg/cm^2, the Enhancement effect turned out to be 8.4 fold and the “Skin permeation amount of PBS solution” value is 4.2 μg/cm^2. Also, in series [5] (quantified by own fluorescence (GFP) or peroxidase activity (HRP) in skin extract), the “state of the protein permeated into the skin” value is “could be permeated into the skin without being denatured”.
For Cholera toxin subunit B, the ζ potential in series [3] is given as −3.29 mV. In series [4], the pI is 6.6. For the same molecule, in series [5], the “Skin permeation amount of S/O-S preparation” value came out at 39.4 μg/cm^2, the Enhancement effect stood at 4.0 fold and the “Skin permeation amount of PBS solution” value amounted to 9.8 μg/cm^2.
On to “Bovin serum albumin: Bovine serum albumin, 66.5 kDa, FITC-label”, for which, in series [3], the ζ potential is on record as −16.7 mV. For the same molecule, the pI in series [4] is 4.7. Also, in series [5], the “Skin permeation amount of S/O-S preparation” value is recorded as 32.1 μg/cm^2, the Enhancement effect was found to be 8.9 fold and the “Skin permeation amount of PBS solution” value worked out at 3.6 μg/cm^2.
With `CCCCCCCCCCCCCC(=O)OC(C)C` [Isopropyl myristate, isopropyl myristate], in series [6], the “skin permeation effect of OVA by oily base” value is recorded as “high skin permeation effect” and the “Average skin permeation amount” value stood at 44.3 μg/cm^2.
`CCCCCCCC/C=C\CCCCCCCC(=O)OCC(O)CO` (stereo not drawn) [MGOL-70, glyceryl monooleate]: the “tendency of the enhancing substance on percutaneous permeation of OVA” value in series [7] is “tend to enhance it”.
For `CC(C)CCCC(C)CCCC(C)CCCCC(C)CCCC(C)CCCC(C)C` (stereo not drawn) [Squalane, squalane], in series [6], the “skin permeation effect of OVA by oily base” value is recorded as “high skin permeation effect” and the “Average skin permeation amount” value worked out at 40.8 μg/cm^2.
Turning to “Lysozyme: Lysozyme, 14.3 kDa, FITC-label”, the ζ potential in series [3] is 8.84 mV. Besides, the pI in series [4] is listed as 11. For the same molecule, in series [5], the “Skin permeation amount of S/O-S preparation” value was determined as 6.0 μg/cm^2, the Enhancement effect is recorded as 1.5 fold and the “Skin permeation amount of PBS solution” value was 4.0 μg/cm^2.
For the molecule `CC(C)C[C@H](NC(=O)[C@H](CCC(=O)O)NC(=O)[C@H](CCC(=O)O)NC(=O)[C@@H](NC(=O)[C@H](Cc1ccc(O)cc1)NC(=O)[C@@H](NC(=O)[C@H](CCCNC(=N)N)NC(=O)[C@H](CC(C)C)NC(=O)[C@@H]1CCCN1C(=O)[C@H](C)NC(=O)[C@H](CO)NC(=O)[C@H](CCC(N)=O)NC(=O)[C@H](C)NC(=O)[C@H](CC(=O)O)NC(=O)[C@H](CC(C)C)NC(=O)[C@@H](N)CC(C)C)C(C)C)C(C)C)C(=O)N[C@@H](CCCCN)C(=O)N1CCC[C@H]1C(=O)O` [Peptide (CMAP, from Beta-lactoglobulin)] (H-LLDAQSAPLRVYVEELKP-OH; N-terminus and C-terminus assumed), in series [5], the “Skin permeation amount of S/O-S preparation” value was found to be 11.1 μg/cm^2, the Enhancement effect is reported as 15 fold and the “Skin permeation amount of PBS solution” value stood at 1.30 μg/cm^2.

B1: Ovalubumin: Ovalbumin (OVA), 45 kDa, labeled with FITC; model hydrophilic drug (protein, UniProt P01012 2-386, looked up)
Ovalbumin: GSIGAASMEFCFDVFKELKVHHANENIFYCPIAIMSALAMVYLGAKDSTRTQINKVVRFDKLPGFGDSIEAQCGTSVNVHSSLRDILNQITKPNDVYSFSLASRLYAEERYPILPEYLQCVKELYRGGLEPINFQTAADQARELINSWVESQTNGIIRNVLQPSSVDSQTAMVLVNAIVFKGLWEKAFKDEDTQAMPFRVTEQESKPVQMMYQIGLFRVASMASEKMKILELPFASGTMSMLVLLPDEVSGLEQLESIINFEKLTEWTSSNVMEERKIKVYLPRMKMEEKYNLTSVLMAMGITDVFSSSANLSGISSAESLKISQAVHAAHAEINEAGREVVGSAEAGVDAASVSEEFRADHPFLFCIKHIATNAVLFFGRCVSP
modifications: FITC
notes: Ovalbumin (OVA), 45 kDa, labeled with FITC; model hydrophilic drug
Regarding B1, the ζ potential in series [3] is reported as −12.80 mV. Also, the pI in series [4] is listed as 4.9. For the same molecule, in series [5], the “Skin permeation amount of S/O-S preparation” value turned out to be 12.5 μg/cm^2, the Enhancement effect worked out at 30 fold and the “Skin permeation amount of PBS solution” value is reported as 0.41 μg/cm^2.

Values taken from patent US20210205211A1, “PERCUTANEOUS ABSORPTION PREPARATION” (KYUSHU UNIVERSITY, NATIONAL UNIVERSITY CORPORATION, priority 2018, published 2021).
